Each block holds one binder with its values, some of them ahead of it.
Columns and labels:
[1] = target: T1, bovine heart E2 of the native bovine PDC core (bE2/E3BP) (bovine, UniProt P11180 87-647); test: SAXS; beamline X33 EMBL/DESY; PEBS100 buffer; 830.9 nM rE2/E3BP and 183.1 nM bE2/E3BP used for ab initio modelling (GASBOR, icosahedral symmetry); details: both partners purified
T1 construct: E2 (dihydrolipoamide acetyltransferase) of bovine heart pyruvate dehydrogenase complex, native; also called E2 of bE2/E3BP; source: purified from bovine heart PDC (sucrose gradients in 2 M NaCl), as bE2/E3BP core
T1 sequence (looked up): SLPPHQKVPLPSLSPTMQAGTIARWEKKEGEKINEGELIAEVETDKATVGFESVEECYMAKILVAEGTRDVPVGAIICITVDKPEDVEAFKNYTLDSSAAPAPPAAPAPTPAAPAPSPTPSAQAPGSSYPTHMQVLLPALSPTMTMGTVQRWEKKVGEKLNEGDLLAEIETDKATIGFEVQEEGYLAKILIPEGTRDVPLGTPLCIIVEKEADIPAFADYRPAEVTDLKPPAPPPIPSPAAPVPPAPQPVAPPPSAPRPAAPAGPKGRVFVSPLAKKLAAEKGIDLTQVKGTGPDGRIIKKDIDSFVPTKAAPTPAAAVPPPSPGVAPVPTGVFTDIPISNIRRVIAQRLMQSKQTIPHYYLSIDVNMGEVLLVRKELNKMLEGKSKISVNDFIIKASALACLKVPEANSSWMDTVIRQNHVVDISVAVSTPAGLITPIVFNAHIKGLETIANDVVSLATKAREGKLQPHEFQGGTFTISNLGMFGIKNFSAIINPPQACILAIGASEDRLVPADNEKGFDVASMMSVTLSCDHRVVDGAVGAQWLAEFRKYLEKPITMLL

[2] = target: the molecule itself; test: AUC; sedimentation velocity of the cores; 76-306 nM rE2/E3BP, 60-260 nM rE2, 116-730 nM tE2/E3BP; PEBS100 buffer (2 mM EDTA, 100 mM NaCl, 50 mM KH2PO4, pH 7.5); 20,000 rpm, 4 °C; interference optics

binding result [1]: binds
B1: bovine heart E3BP of the native bovine PDC core (bE2/E3BP) (natural protein, UniProt P22439 54-501, looked up)
chain: ADPIKILMPSLSPTMEEGNIVKWLKKEGEAVSAGDALCEIETDKAVVTLDASDDGILAKIVVAEGSKNIRLGSLIGLLVEEGEDWKHVEIPKDTGPPPPAAKPSVPPPSAEPQIATPVKKEHPPGKVQFRLSPAARNILEKHALDANQGTATGPRGIFTKEDALKLVQLKQTGKITEPRPTAALPTTPAAPLPPQAAATASYPRPMIPPVSTPGQPNVEGTFTEIPASNIRRVIAKRLTESKSTIPHAYATTDCDLGAVLTARQNLVRDDIKVSVNDFIIKAAAVTLKQMPNVNASWDGEGAKQLPSIDISVAVATDRGLITPVIKDAAAKGLQEIADSVKALSKKARDGKLLPEEYQGGSFSISNLGMFGIDEFTAVINPPQACILAVGRFRPVLKLTQDEEGNAQLQQRQLITVTMSSDSRVVDDELATRFLESFKANLENPLRLA
notes: also called E3BP of bE2/E3BP; source: purified from bovine heart PDC (sucrose gradients in 2 M NaCl), as bE2/E3BP core

B2: recombinant full-length E2-only PDC core (rE2); dihydrolipoamide acetyltransferase of human pyruvate dehydrogenase complex (enzyme, UniProt P10515 87-647, looked up)
chain: SLPPHQKVPLPSLSPTMQAGTIARWEKKEGDKINEGDLIAEVETDKATVGFESLEECYMAKILVAEGTRDVPIGAIICITVGKPEDIEAFKNYTLDSSAAPTPQAAPAPTPAATASPPTPSAQAPGSSYPPHMQVLLPALSPTMTMGTVQRWEKKVGEKLSEGDLLAEIETDKATIGFEVQEEGYLAKILVPEGTRDVPLGTPLCIIVEKEADISAFADYRPTEVTDLKPQVPPPTPPPVAAVPPTPQPLAPTPSAPCPATPAGPKGRVFVSPLAKKLAVEKGIDLTQVKGTGPDGRITKKDIDSFVPSKVAPAPAAVVPPTGPGMAPVPTGVFTDIPISNIRRVIAQRLMQSKQTIPHYYLSIDVNMGEVLLVRKELNKILEGRSKISVNDFIIKASALACLKVPEANSSWMDTVIRQNHVVDVSVAVSTPAGLITPIVFNAHIKGVETIANDVVSLATKAREGKLQPHEFQGGTFTISNLGMFGIKNFSAIINPPQACILAIGASEDKLVPADNEKGFDVASMMSVTLSCDHRVVDGAVGAQWLAEFRKYLEKPITMLL
notes: E2 (dihydrolipoamide acetyltransferase) of the human pyruvate dehydrogenase complex, full-length recombinant; monomer printed as 61 kDa; 60-mer mass from composition 3,741,780 Da; Cultures were supplemented with lipoic acid on induction; source: E. coli BL21 star (DE3), pET14b, purified (zinc chelate, anion exchange, gel filtration); not shown: His tag, N-terminal, kept; copies: 60
stoichiometry N [2]: 60

— publication PMC2880790, “Solution Structure and Characterisation of the Human Pyruvate Dehydrogenase Complex Core Assembly” (Journal of Molecular Biology, 2010)
